Results published in publication PMC8480326, “Chemoenzymatic glycan-selective remodeling of a therapeutic lysosomal enzyme with high-affinity M6P-glycan ligands. Enzyme substrate specificity is the name of the game” (Chemical Science, 2021).

Target: T1, Recombinant human IGF-II R (CI-MPR) (Homo sapiens, UniProt P11717)
T1 construct: purchased R&D Systems
Test: SPR binding to immobilized CI-MPR
Experimental: Surface Plasmon Resonance (SPR) Measurements. SPR measurements were performed on a Biacore T200 instrument (GE Healthcare). Recombinant human IGF-II R (CI-MPR) was purchased
from R&D Systems. Approximately 7000 resonance units (RU) of CI-MPR was immobilized on a
CM5 sensor chip in a sodium acetate buffer (25 μg/mL, pH 4.0) at 25 °C, using the amine coupling kit
provided by the manufacturer. Mannose 6-phosphate containing glycopeptides or glycoproteins were
determined at 25 °C under a flow rate of 10 μL/min. HBS-P+ buffer (10 mM HEPES, 150 mM NaCl,
0.05% surfactant P20, pH 7.4) was used as sample buffer and running buffer. Association was
measured for 3 min and dissociation for 10 min at same flow rate (10 μL/min). The surface
and glycoprotein analytes flowed over an immobilized chip with 2-fold serial dilution of the highest
concentration of 4 μM (for glycopeptides) or 1 μM (for RNase B) or 250 nM (for rhGAA).
analyses were performed by global fitting of the binding data to a 1:1 Langmuir binding model using

T1 sequence (P11717 41-2491): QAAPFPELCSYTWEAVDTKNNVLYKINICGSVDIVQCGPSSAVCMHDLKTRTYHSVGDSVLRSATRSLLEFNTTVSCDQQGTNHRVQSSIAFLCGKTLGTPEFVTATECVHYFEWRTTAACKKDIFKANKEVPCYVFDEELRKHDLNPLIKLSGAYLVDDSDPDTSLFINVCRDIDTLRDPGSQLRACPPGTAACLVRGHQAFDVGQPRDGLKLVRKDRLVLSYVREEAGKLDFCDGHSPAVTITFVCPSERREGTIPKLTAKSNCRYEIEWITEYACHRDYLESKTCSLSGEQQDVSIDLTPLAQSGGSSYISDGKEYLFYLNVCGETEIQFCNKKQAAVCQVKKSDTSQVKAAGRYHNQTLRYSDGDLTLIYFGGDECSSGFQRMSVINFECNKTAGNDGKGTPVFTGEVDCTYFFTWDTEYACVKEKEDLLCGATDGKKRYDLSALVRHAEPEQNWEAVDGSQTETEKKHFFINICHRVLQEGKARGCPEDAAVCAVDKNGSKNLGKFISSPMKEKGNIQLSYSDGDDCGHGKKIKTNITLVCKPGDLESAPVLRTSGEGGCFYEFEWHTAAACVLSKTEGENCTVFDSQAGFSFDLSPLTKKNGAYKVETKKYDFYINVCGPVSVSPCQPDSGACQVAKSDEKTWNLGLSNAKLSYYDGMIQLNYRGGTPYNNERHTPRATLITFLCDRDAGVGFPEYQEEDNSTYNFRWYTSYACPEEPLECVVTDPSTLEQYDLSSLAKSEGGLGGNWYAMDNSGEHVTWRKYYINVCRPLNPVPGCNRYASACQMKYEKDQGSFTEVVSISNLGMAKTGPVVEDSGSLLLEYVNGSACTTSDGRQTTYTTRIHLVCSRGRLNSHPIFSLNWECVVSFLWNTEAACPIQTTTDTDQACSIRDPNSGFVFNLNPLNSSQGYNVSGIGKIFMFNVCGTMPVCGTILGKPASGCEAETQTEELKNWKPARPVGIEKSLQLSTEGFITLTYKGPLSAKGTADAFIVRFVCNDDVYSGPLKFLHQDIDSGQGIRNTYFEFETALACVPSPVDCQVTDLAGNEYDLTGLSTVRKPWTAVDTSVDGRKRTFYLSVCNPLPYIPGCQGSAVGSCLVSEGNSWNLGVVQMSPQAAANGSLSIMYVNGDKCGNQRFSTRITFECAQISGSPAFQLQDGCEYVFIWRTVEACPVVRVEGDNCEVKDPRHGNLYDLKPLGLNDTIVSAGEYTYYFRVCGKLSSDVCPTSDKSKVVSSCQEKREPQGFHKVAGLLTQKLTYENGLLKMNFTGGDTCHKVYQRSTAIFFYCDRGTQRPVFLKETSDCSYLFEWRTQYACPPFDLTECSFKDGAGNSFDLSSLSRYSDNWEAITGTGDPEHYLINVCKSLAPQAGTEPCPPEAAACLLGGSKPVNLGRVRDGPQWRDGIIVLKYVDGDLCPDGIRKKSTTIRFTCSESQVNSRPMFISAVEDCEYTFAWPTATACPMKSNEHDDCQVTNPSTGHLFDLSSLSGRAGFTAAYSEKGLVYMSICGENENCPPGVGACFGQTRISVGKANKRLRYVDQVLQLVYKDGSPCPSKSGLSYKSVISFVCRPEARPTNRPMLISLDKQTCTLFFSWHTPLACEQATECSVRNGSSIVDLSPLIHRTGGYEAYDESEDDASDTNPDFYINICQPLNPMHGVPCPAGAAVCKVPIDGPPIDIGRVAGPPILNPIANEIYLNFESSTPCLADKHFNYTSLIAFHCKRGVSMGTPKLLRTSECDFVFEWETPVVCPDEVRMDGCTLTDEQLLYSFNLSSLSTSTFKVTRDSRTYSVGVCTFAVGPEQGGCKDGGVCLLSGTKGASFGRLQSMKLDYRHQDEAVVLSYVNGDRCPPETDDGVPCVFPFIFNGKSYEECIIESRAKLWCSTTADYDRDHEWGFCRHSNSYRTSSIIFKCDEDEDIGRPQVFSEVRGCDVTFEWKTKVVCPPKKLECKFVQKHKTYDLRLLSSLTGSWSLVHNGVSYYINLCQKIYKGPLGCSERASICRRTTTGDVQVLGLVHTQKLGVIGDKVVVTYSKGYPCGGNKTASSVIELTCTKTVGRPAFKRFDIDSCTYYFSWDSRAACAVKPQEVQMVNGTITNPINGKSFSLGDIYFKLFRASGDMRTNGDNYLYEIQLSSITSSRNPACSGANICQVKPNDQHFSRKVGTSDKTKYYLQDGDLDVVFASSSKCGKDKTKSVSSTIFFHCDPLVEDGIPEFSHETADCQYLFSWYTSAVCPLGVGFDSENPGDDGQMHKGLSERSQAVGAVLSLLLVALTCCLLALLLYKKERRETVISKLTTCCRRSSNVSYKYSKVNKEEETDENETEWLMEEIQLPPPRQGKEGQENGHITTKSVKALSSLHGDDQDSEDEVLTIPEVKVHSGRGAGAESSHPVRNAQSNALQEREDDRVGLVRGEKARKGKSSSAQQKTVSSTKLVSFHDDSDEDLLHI

B1: 68: M6P-containing RNase B, remodeled with tetrasaccharide oxazoline 8 by Endo-A (protein, UniProt P61823 27-150, looked up)
Ribonuclease pancreatic: KETAAAKFERQHMDSSTSAASSSNYCNQMMKSRNLTKDRCKPVNTFVHESLADVQAVCSQKNVACKNGQTNCYQSYSTMSITDCRETGSSKYPNCAYKTTQANKHIIVACEGNPYVPVHFDASV
modifications: M6P-tetrasaccharide glycan remodeled by Endo-A
notes: M6P-containing RNase B, remodeled with tetrasaccharide oxazoline 8 by Endo-A
Question: For B1, which Kd (SPR, immobilized CI-MPR, 25 °C, average of three independent experiments) is on record?
Answer: 15.8 nM

Question: What about the Ka (representative SPR sensorgram, 1:1 Langmuir fit, association constant) of the same molecule?
Answer: 6.877E+4

Question: And the Kd (representative SPR sensorgram, single experiment)?
Answer: 15.5 nM
